The target in one assay is PCSK9/LDLR interaction (Homo sapiens, UniProt Q8NBP7). Description: Alphascreen binding assay: inhibition of PCSK9/LDLR interaction (Example 3). The text has this: An Amplified Luminescent Proximity Homogeneous Assay (ALPHA, Perkin-Elmer; Waltham, Mass.) capable of directly determining the interaction between PCSK9-FLAG and a putative binding partner was used to determine the effect of anti-PCSK9 antibodies on this interaction. This technique required that “donor” and “acceptor” beads be brought into proximity via protein-protein interaction, resulting in increased luminescence (Ullman et al., Proc. Nat. Acad. Sci. (1994) 91:5426-5430). In the basic assay, LDL receptor binding to PCSK9 was determined as follows: 5 μl of recombinant receptor at the appropriate concentrations was incubated with 2.5 μl PCSK9-FLAG (1.4 μg/ml, 30 min). About 2.5 μl of biotinylated anti-Flag-M2 antibody (1.8 μg/ml) was added and the mixture incubated for 1 hour. Afterward 5 μl of streptavidin donor bead and nickel chelate acceptor bead (1:1 mixture) was added and the assay incubated overnight. AlphaScreen signal (counts per second) was analyzed using an EnVision microplate reader (Perkin-Elmer). All data points were determined in triplicate. Assays were carried out at 23° C. in buffer containing 25 mM HEPES, 0.1 M NaCl, pH 7.4, 0.1% BSA. The inhibition assays were determined similarly with slight adjustments to assay volumes and protein concentrations. Briefly, 5 μl of 1.25 μg/ml of PCSK9-Flag and 1.25 μg/ml of His-tagged LDL receptor was incubated with 2.5 μl of antibody at the appropriate concentrations for 30 minutes followed by the addition of 2.5 μl of anti-Flag-BioM2 (1.8 μg/ml) and a 1 hour incubation.
PCSK9/LDLR interaction, sequence (Q8NBP7 153-692): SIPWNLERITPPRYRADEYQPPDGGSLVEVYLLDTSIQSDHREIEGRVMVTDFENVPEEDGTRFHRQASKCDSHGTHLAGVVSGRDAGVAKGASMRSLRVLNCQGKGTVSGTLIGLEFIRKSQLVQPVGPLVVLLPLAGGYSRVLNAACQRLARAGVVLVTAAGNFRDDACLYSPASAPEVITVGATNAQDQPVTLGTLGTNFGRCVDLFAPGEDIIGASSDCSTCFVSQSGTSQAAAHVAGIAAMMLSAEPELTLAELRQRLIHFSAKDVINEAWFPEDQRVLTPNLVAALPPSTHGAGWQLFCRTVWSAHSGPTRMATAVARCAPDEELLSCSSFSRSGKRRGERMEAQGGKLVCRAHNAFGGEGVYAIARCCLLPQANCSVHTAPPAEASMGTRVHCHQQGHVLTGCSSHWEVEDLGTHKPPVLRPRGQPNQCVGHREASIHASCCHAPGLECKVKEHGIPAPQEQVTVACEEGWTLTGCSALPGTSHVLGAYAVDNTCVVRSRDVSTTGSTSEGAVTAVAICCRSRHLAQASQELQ
PCSK9/LDLR interaction, sequence (Q8NBP7 31-152 partner limits assumed): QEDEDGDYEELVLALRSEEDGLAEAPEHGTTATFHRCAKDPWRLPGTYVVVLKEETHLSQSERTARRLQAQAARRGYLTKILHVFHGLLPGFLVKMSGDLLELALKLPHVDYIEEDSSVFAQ

The target in assay [1] is T1, PCSK9 (Homo sapiens, UniProt Q8NBP7). Description: In-cell western: inhibition of PCSK9-mediated LDLR degradation in HepG2 cells. The conditions noted are these: for Relative level of inhibition of LDLR degradation observed: PCSK9 100 nM, 18 hours, LDLR normalized to β-actin. On the set-up: The protein was added exogenously to HepG2 cells; key to Relative level of inhibition of LDLR degradation observed: Greater number of + symbols indicates a greater level of inhibition relative to other treatments.; ++: Greater number of + symbols indicates a greater level of inhibition relative to other treatments.; +++: Greater number of + symbols indicates a greater level of inhibition relative to other treatments. The assay is classed as cell-based. As to the method: The 75B9, 77D10, 11B5, 22D11, 1F11/1G11 and 29C10 antibodies were evaluated in an in-cell western assay for their ability to inhibit the degradation of the LDL receptor by PCSK9 in HepG2 cells.
T1 sequence (Q8NBP7 153-692): as the sequence (Q8NBP7 153-692) above
In-cell western was performed to quantitate anti-PCSK9 antibody inhibition of PCSK9-mediated LDLR degradation. HepG2 cells were seeded in 384-well collagen I coated plates and treated with anti-PCSK9 antibody and/or PCSK9 (100 nM) for 18 hours. Detection of LDLR and β-actin was performed according to the manufacturer's protocol (Li-Cor Biosciences; Lincoln, Nebr.) using the antibodies described above in conjunction with IRDye 800CW goat anti-rabbit (Li-Cor) and IRDye 680 goat anti-mouse (Li-Cor). The assay was read on an Odyssey infrared imaging system (Li-Cor) and the signal for LDLR protein in each well normalized to β-actin content.

The target of assay [2] is T1, PCSK9. Description: In vivo inhibition of liver LDLR degradation in mice (Western blot). On the set-up: host or cells: Exogenous protein injected into male C57BL/6J mice. As to conditions: for LDLR/GAPDH / LDLR (band intensity): liver, individual mice 107-110; for LDLR (band intensity): 400 μg antibody i.p., 10 μg human PCSK9 i.v.; for Mean LDLR/GAPDH: Antibody and PCSK9 group; for % Change: mean LDLR/GAPDH vs. Saline only control. As to the method:
(§1) The ability of an anti-PCSK9 antibody (1F11/1G11) to inhibit LDL receptor degration in mice was evaluated in these assays along with the ability of the antibodies to modulate cholesterol levels.
(§2) Time-0: Male C57BL16j mice were injected, intraperitoneal, with 400 μg of anti-human PCSK9 Antibody, 1F11/1G11. • Time-2 hours: Mice were then injected, intravenously, with 10 μg of human PCSK9 Protein. • Time-4 hours: Mice were terminated and plasma and liver samples were collected. Analysis:
Protein levels of Liver LDL Receptor were determined by Western Blot. 40 μg of each liver homogenate was separated on an Invitrogen 4-12% NuPAGE gel, transferred to PVDF membrane and incubated with goat anti-mouse LDL receptor antibody (rabbit anti-GAPDH antibody was used as a control for equal loading). Membranes were then incubated with corresponding HRP-linked antibodies and visualization was accomplished with high performance chemiluminescence film. Band intensities were quantified using ImageQuant 5.2 software.
LDL receptor levels were expressed in Arbitrary Units (AU) as a ratio of LDL receptor band intensity to GAPDH band intensity. Two separate analyses of the data are presented, […]
Background: A western blot detects proteins with antibodies after separation by electrophoresis.

In assay [3] the target is T1, PCSK9. Description: Plasma cholesterol in mice injected with human PCSK9. The class given is in vivo. Set-up: host or cells: Exogenous protein injected into male C57BL/6J mice. The conditions noted are these: Male C57BL16j mice; 400 μg antibody i.p., 10 μg human PCSK9 i.v. at 2 hours; plasma at 4 hours. As to the method: as §1, §2
Plasma lipoprotein profiles of individual mice (0.1 mL plasma) were determined by fast protein liquid chromatography (FPLC) with a Pharmacia Superose 6 column. FPLC fraction cholesterol levels were determined using Wako Cholesterol Enzymatic colorimetric method.

Where a chain is given by its changes, count along the chain named. Where “and” joins values, the source holds several entries; their conditions need not be identical. Equal entries are not always repeated. Marks after values point to notes of the source that are not given here.

B1: 75B9: mouse anti-human PCSK9 antibody (IgG2a); heavy chain SEQ ID NO: 18, light chain SEQ ID NO: 22 (antibody, listed as Mus musculus, V domains shown)
VH: EVQLQQSGADLVKPGASVKLSCTASGFNIKDTYIHWVKQRPEQGLEWIGRIDPANGHTEYDPKFQGRATLTTDTSSNTAYLQLFSLTSEDSAVYFCARSYYGSIFAYWGQGTLVTVSA
VL: QIVLTQSPAIMSASPGEKVTISCSASSSVSYLFWYQQKPGSSPKPWIFRTSYLASGVPARFSGSGSGTSFSLTISSMEAEDAATYYCHQYHTYPPTFGGGTKLEIKRA
As for B1, the “Inhibition of PCSK9/LDL receptor interaction (in words)” value with PCSK9/LDLR interaction is “effectively inhibit interaction between PCSK9 and the LDL receptor”. For the same molecule, in the assay with PCSK9 [1], the “Inhibition of PCSK9-mediated LDL receptor degradation (in words)” value is given as “inhibit PCSK9-mediated LDL receptor degradation” and the “Relative level of inhibition of LDLR degradation observed” value is given as “++”.

B2: 11B5: mouse anti-human PCSK9 antibody (IgG2a); heavy chain SEQ ID NO: 10, light chain SEQ ID NO: 14 (antibody, listed as Mus musculus, V domains shown)
VH: EVQLQQSGAELVKPGASVTLSCTASGFNIKDTYMHWVNQRPEQGLVWIGRIDPANGHTEYDPKFQDKATITTDTSSNTAYLHLSSLTSGDTAVYYCARSYFGSIFAYWGQGTLVTVSA
VL: B1 VL with F33Y, T50S, Y52H, L53R, F70Y, H91Q, T92S
For the molecule B2, the “Inhibition of PCSK9/LDL receptor interaction (in words)” value with PCSK9/LDLR interaction was “effectively inhibit interaction between PCSK9 and the LDL receptor”. Besides, in the assay with PCSK9 [1], the “Inhibition of PCSK9-mediated LDL receptor degradation (in words)” value is given as “inhibit PCSK9-mediated LDL receptor degradation” and the “Relative level of inhibition of LDLR degradation observed” value is on record as “++”.

B3: 1F11/1G11: mouse anti-human PCSK9 antibody (IgG2a); heavy chain SEQ ID NO: 50, light chain SEQ ID NO: 54 (antibody, listed as Mus musculus, V domains shown)
VH: EVQLQQSGPELVKPGASVKISCKVSGYTFTDYYMNWVKQSHGKSLEWIGDINPNNGGAIYNQKFKGKATLTVDKSSSIAYMELRSLTSEDSAVYYCTSGIITEIAEDFWGQGTTLTVSS
VL: DIVMTQSQKFMSTSVGDRVSVTCKASQNVGTNVVWYQQKPGQSPKALIHSASYRYSGVPDRFKGSGSGTDFTLTITNVQSEDLAGFFCQQYKTYPYTFGGGTQLEIKRA
For B3, the “Inhibition of PCSK9/LDL receptor interaction (in words)” value with PCSK9/LDLR interaction is “effectively inhibit interaction between PCSK9 and the LDL receptor”. The “% inhibition at 450 nM of antibody” value in the assay with PCSK9/LDLR interaction (450 nM antibody, relative to the assay with no antibody added) is listed as 88* %. The “Inhibition of PCSK9-mediated LDL receptor degradation (in words)” value with PCSK9 [1] is listed as “inhibit PCSK9-mediated LDL receptor degradation”. For the same molecule, the “Relative level of inhibition of LDLR degradation observed” value in the assay with PCSK9 [1] is recorded as “+++”. Moreover, the LDLR/GAPDH in the assay with PCSK9 [2] (Table 7, lightest exposure of LDLR panel vs. GAPDH panel) is 0.272 AU and 0.278 AU and 0.262 AU and 0.128 AU; in the assay with PCSK9 [2] (Table 8, darker exposure of LDLR panel vs. lightest GAPDH panel), 0.439 AU and 0.396 AU and 0.426 AU and 0.249 AU. Moreover, the “LDLR (band intensity)” value was 13714 and 13766 and 12508 and 5977 with PCSK9 [2] (Table 7, lightest exposure of LDLR panel); 19883 and 18057 and 18642 and 10669 with PCSK9 [2] (Table 8, darker exposure of LDLR panel). Moreover, the “Mean LDLR/GAPDH” value with PCSK9 [2] (Table 7, lightest exposure) was 0.235 AU; with PCSK9 [2] (Table 8, darker exposure) it was 0.377 AU. Further, the “% Change” value is on record as −48.0% with PCSK9 [2] (Table 7, lightest exposure) and −35.2% with PCSK9 [2] (Table 8, darker exposure). In the assay with PCSK9 [3], the “Plasma total cholesterol level” value turned out to be 72.05 mg/dL.

B4: 29C10: mouse anti-human PCSK9 antibody (IgG2a); heavy chain SEQ ID NO: 34, light chain SEQ ID NO: 38 (antibody, listed as Mus musculus, V domains shown)
VH: EVLLQQSVAELVRPGASVRLSCTASGFNIKDTYIHWVRQRPEQGLEWFGWIDPANGYTKYAPNFQGKATLTTDTSSNTAYLHLSSLTSEDSAIYYCARGYYRYYSLDYWGQGTSVTVSS
VL: DIQMTQTTSSLSASLGDRVTISCRASQDISNYLNWYQQKPDGTVKLLIYYSSRLHSGVPSRFSGRGSGTDYSLTISTLEQEDIATYFCQQGKTLPLTFGAGTKLELKRA
On to B4, for which the “Inhibition of PCSK9/LDL receptor interaction (in words)” value with PCSK9/LDLR interaction is “effectively inhibit interaction between PCSK9 and the LDL receptor”. Besides, in the assay with PCSK9 [1], the “Inhibition of PCSK9-mediated LDL receptor degradation (in words)” value is given as “inhibit PCSK9-mediated LDL receptor degradation” and the “Relative level of inhibition of LDLR degradation observed” value is reported as “+”.

B5: 22D11: anti-human PCSK9 antibody (IgG1); heavy chain SEQ ID NO: 42, light chain SEQ ID NO: 46 (antibody, listed as Mus musculus, V domains shown)
VH: EVQLVDSGGGLVQPGRSLKLSCAASGFTFSNHDMAWVRQAPTKGLEWVASITPSGGTTYYRDSVEGRFTVSRDNVKSSLHLQMDSLTSEDTATYYCARQNYYDGSYYYGLYYFDYWGQGVMVTVSS
VL: DVLMTQTPVSLPVSLGGQVSISCRSSQSLVYSDGNTYLHWYLQKPGQSPQLLIYRVSNRFSGVPDRFSGSGSGTDFTLKISRVEPEDLGLYYCLQSTHFPPTFGSGTKLEIKRA
As to B5, the “Inhibition of PCSK9/LDL receptor interaction (in words)” value with PCSK9/LDLR interaction is “effectively inhibit interaction between PCSK9 and the LDL receptor”. Moreover, in the assay with PCSK9 [1], the “Inhibition of PCSK9-mediated LDL receptor degradation (in words)” value is “inhibit PCSK9-mediated LDL receptor degradation” and the “Relative level of inhibition of LDLR degradation observed” value was “+”.

B6: 77D10: mouse anti-human PCSK9 antibody (IgG2b); heavy chain SEQ ID NO: 26, light chain SEQ ID NO: 30 (antibody, listed as Mus musculus, V domains shown)
VH: EVQLQQSGAELVRSGASVKLSCTTSGFNIKDYYIHWVKQRPEQGLEWIGWIDPENGDTEYAPKFQGKATMTADTSSNTAYLQLSSLTSADTAVYYCNAYYRYDDGTWFPYWGQGTLVTVSA
VL: DIQLTQSPASLSASVGETVTITCRASGNIHSYLAWYQQKQGKSPQFLVDNAKTLPDGVPSRFSVSGSGTQYSLKINSLQPEDFGTYYCQHFWNTPWTFGGGTKLEIKRA
On to B6, for which, in the assay with PCSK9/LDLR interaction, the “Inhibition of PCSK9/LDL receptor interaction (in words)” value was “effectively inhibit interaction between PCSK9 and the LDL receptor”. In the assay with PCSK9 [1], the “Inhibition of PCSK9-mediated LDL receptor degradation (in words)” value was “inhibit PCSK9-mediated LDL receptor degradation” and the “Relative level of inhibition of LDLR degradation observed” value is “++”.

Values taken from patent US8598320B2, “Anti-PCSK9 and methods for treating lipid and cholesterol disorders” (Merck Sharp & Dohme Corp., priority 2007, dated 2013).
